Results published in US20240400693A1 (Chugai, published 2024).
Positions count from the first letter of the chain named.

B1: DQN0344H0976/L0591//DQN0385H1255/L0605-F6.v2 (bispecific antibody)
heavy 1: QVQLVESGGGVVQPGGSLRLSCAASGFTFSSAYWMVWVRQAPGQGLEWMGAVYGGSDTTYYAKWTEGRFTISRDTSKNTLYLQMNSLRAEDTAVYYCAREPLNYYYYGELNLWGQGTLVTVSSASTKGPSVFPLAPSSKSTSGGTAALGCLVKDYFPEPVTVSWNSGALTSGVHTFPAVLKSSGLYSLSSVVTVPSSSLGTQTYICNVNHKPSNTKVDKRVEPKSCDKTHTCPPCPAPELRRGPSVFLFPPKPKDTLMISRTPEVTCVVVDVSHEDPEVKFNWYVDGVEVHNAKTKPREEQYNSTYRVVSVLTVLHQDWLNGKEYKCKVSNKALPAPIEKTISKAKGQPREPQVYTLPPSREEMTKNQVSLTCLVKGFYPSDIAVEWESNGQPENNYKTTPPVLDSDGSFFLYSKLTVDKSRWQEGNVFSCSVLHEALHAHYTREELSLSP
light 1: DIQMTQSPSSLSASVGDRVTITCQATEEIYSGLAWYQQKPGKAPKLLIYYVSTLYEGIPARFSGSGSGTDFTLTISSLEPEDFAVYYCQTYEDVSAVTFGQGTKVEIKRTVAAPSVFIFPPSDEQLKSGTAEVVCLLNNFYPREAKVQWKVDNALQSGNSEESVTEQDSKDSTYSLSSTLTLSKADYEKHKVYACEVTHQGLSSPVTKSFNRGEC
heavy 2: QVQLVESGGGVVQPGRSLRLSCAASGFTFSEWYFMSWVRQAPGKGLEWVASIDTGSGSIDYAGWVEERFTISRDNSKNTLYLQMNSLRAEDTAVYYCARDIGIDYNFWGPGTLVTVSSASTKGPSVFPLAPSSKSTSGGTAALGCLVEDYFPEPVTVSWNSGALTSGVHTFPAVLESSGLYSLSSVVTVPSSSLGTKTYICNVNHKPSNTKVDKRVEPKSCDKTHTCPPCPAPELRRGPSVFLFPPKPKDTLMISRTPEVTCVVVDVSHEDPEVKFNWYVDGVEVHNAKTKPREEQYNSTYRVVSVLTVLHQDWLNGKEYKCKVSNKALPAPIEKTISKAKGQPREPQVYTLPPSRKEMTKNQVSLTCLVKGFYPSDIAVEWESNGQPENNYKTTPPVLDSDGSFFLYSKLTVDKSRWQQGNVFSCSVLHEALHAHYTRKELSLSP
light 2: DIQMTQSPSSLSASVGDRVTITCQTTQSISSYLNWYQQKPGQPPKLLIYYASTKAEGIPARFSGSGSGTDFTLTISSLEPEDFAVYYCHYGISKVSFGQGTKVEIKRTVAAPSVFIFPPSDEQLKSGTAKVVCLLNNFYPREAKVQWKVDNALQSGNSKESVTEQDSKDSTYSLSSTLTLSKADYEKHKVYACEVTHQGLSSPVTKSFNRGEC
B2: DQN0344H1013/L0620//DQN0385H1521/L0605-F6.v2 (bispecific antibody)
heavy 1: B1 heavy 1 with G16R, L112V
light 1: B1 light 1 with E28N, Y55A, E56Y
heavy 2: B1 heavy 2 with S30E, E31S, G63E, E67G
light 2: B1 light 2

Key:
Assay in all cases: cell-based or functional assay
[1] = biological target: HLA-DQ2.2 on HBBB2.2 cells loaded with 33mer gliadin peptide (human; wheat)
[2] = biological target: HLA-DQ2.5 on IHW09023 cells loaded with gamma 3 gliadin peptide (human; wheat)
[3] = biological target: HLA-DQ2.5 on IHW09023 cells loaded with 33mer gliadin peptide (human; wheat)
[4] = biological target: HLA-DQ2.5 on IHW09023 cells loaded with gamma 1 gliadin peptide (human; wheat)
[5] = biological target: HLA-DQ2.5 on IHW09023 cells loaded with gamma 4d gliadin peptide (human; wheat)
[6] = biological target: HLA-DQ2.5 on IHW09023 cells loaded with gamma 2 gliadin peptide (human; wheat)
[7] = biological target: HLA-DQ2.5 on IHW09023 cells loaded with gamma 4a gliadin peptide (human; wheat)
[8] = biological target: HLA-DQ2.5 on IHW09023 cells loaded with BC hordein peptide (human; barley)
[9] = biological target: HLA-DQ2.5 on IHW09023 cells loaded with omega1/2 gliadin peptide (human; wheat)

Binder	IC50 (ng/ml)_HLA-DQ2.2, α1a gliadin TCR, 25 µM 33mer gliadin [1]	IC50 (ng/ml)_HLA-DQ2.2, α2 gliadin TCR, 1 µM 33mer gliadin [1]	IC50 (ng/mL), γ3 gliadin TCR, 100 µM γ3 gliadin [2]	IC50 (ng/mL), α1a gliadin TCR, 250 nM 33mer gliadin [3]	IC50 (ng/mL), α1b gliadin TCR, 250 nM 33mer gliadin [3]	IC50 (ng/mL), α2 gliadin TCR, 250 nM 33mer gliadin [3]	IC50 (ng/mL), γ1 gliadin TCR, 250 nM γ1 gliadin [4]	IC50 (ng/mL), γ4d gliadin TCR, 100 µM γ4d gliadin [5]	IC50 (ng/mL), γ2 gliadin TCR, 250 nM γ2 gliadin [6]	IC50 (ng/mL), γ4a gliadin TCR, 25 µM γ4a gliadin [7]	IC50 (ng/mL), BC hordein TCR, 250 nM BC hordein [8]	IC50 (ng/mL), ω1 gliadin TCR, 25 µM ω1/2 gliadin [9]	IC50 (ng/mL), ω2 gliadin TCR, 250 nM ω1/2 gliadin [9]
B1	1.72 ng/mL	9.48 ng/mL	1.55 ng/mL	0.46 ng/mL	1.33 ng/mL	0.29 ng/mL	1.62 ng/mL	8.69 ng/mL	252 ng/mL	636 ng/mL	9.52 ng/mL	1.62 ng/mL	0.18 ng/mL
B2	1.16 ng/mL	6.51 ng/mL	1.21 ng/mL	0.6 ng/mL	1.81 ng/mL	0.33 ng/mL	1.9 ng/mL	9.23 ng/mL	785 ng/mL	1250 ng/mL	11.4 ng/mL	1.96 ng/mL	0.2 ng/mL
